# Results as given in US20260167699A1 (Chugai, published 2026).
# Target: T1, FcγRIIIaV (human, UniProt P08637 17-208)
# T1 construct: extracellular domain
# Assay: SPR (Biacore), antibody captured, FcγR as analyte, 1:1 Langmuir fit
# Method: The antibody of interest was analyzed for its interaction with FcγR using a BiaCore™ T100, BiaCore™ A100, or BiaCore™ 4000 surface plasmon resonance system (GE Healthcare Japan Corp.). The running buffer used was HBS-EP+ (GE Healthcare Japan Corp.). The assay temperature was set to 25° C. The sensor chips used were: a chip prepared by immobilizing antigenic peptides onto Series S Sensor Chip CM5 (GE Healthcare Japan Corp.) by the amine coupling method; a chip prepared by immobilizing antigenic peptides biotinylated in advance onto Series S Sensor Chip SA (certified) (GE Healthcare Japan Corp.) through their interaction; a chip prepared by immobilizing protein L (ACTIGEN, BioVision, Inc.) onto Series S Sensor Chip CM5 (GE Healthcare Japan Corp.); and a chip prepared by immobilizing protein A/G (Thermo Fisher Scientific K.K.) onto Series S Sensor Chip CM5 (GE Healthcare Japan Corp.). The antibody of interest was captured onto any of these chips and allowed to interact with FcγR diluted with a running buffer. The antibody captured on the chip was washed off through the reaction of 10 mM glycine-HCl (pH 1.5) to regenerate the chip, which was repetitively used.
# T1 sequence (P08637 other isoform, or with tags, fused parts or gaps): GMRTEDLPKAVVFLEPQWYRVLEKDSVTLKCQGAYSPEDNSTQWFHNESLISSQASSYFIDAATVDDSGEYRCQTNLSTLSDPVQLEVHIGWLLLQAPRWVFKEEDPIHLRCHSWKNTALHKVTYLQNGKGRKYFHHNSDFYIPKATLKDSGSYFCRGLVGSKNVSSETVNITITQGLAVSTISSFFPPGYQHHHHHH
row,Binder,Kd
1,"H240-Kn125/H240-Hl076/L73-k0 (antibody, human IgG1, kappa, heterodimerized anti-EREG antibody, parent of the loop-extended forms; also called HI076/Kn125; parent peptide) heavy 1: QDQLVQSGAEVKKPGASVKVSCKASGFNIKDTYIQWVRQAPGQGLEWMGRIDPLRKQTKYREKFEGRVTITADTSTNTAYMELSSLRSEDTAVYYCVRSGREFDYWGQGTLVTVSSASTKGPSVFPLAPSSKSTSGGTAALGCLVKDYFPEPVTVSWNSGALTSGVHTFPAVLQSSGLYSLSSVVTVPSSSLGTQTYICNVNHKPSNTKVDKKVEPKSCDKTHTCPPCPAPELLGGPSVFLFPPKPKDTLMISRTPEVTCVVVDVSHEEPEVKFNWYVDGVEVHNAKTKPREEQYNSTYRVVSVLTVLHQDWLNGKEYKCKVSNDALPMPIEETISKAKGQPREPQVYTLPPSRCELTKNQVSLSCAVKGFYPSDIAVEWESNGQPENNYKTTPPVLDSDGSFFLVSKLTVDKSRWQQGNVFSCSVMHEALHNHYTQKSLSLSP heavy 2: QDQLVQSGAEVKKPGASVKVSCKASGFNIKDTYIQWVRQAPGQGLEWMGRIDPLRKQTKYREKFEGRVTITADTSTNTAYMELSSLRSEDTAVYYCVRSGREFDYWGQGTLVTVSSASTKGPSVFPLAPSSKSTSGGTAALGCLVKDYFPEPVTVSWNSGALTSGVHTFPAVLQSSGLYSLSSVVTVPSSSLGTQTYICNVNHKPSNTKVDKKVEPKSCDKTHTCPPCPAPEYQWGPMVFLFPPKPKDTLMISRTPEVTCVVVDVSDEEPEVKFNWYVDGVEVHNAKTKPREEQYNATYRVVSVLTVLHQDWLNGKEYKCKVSNKALPAPIEKTISKAKGQPREPQVCTLPPSRDELTKNQVSLWCLVKGFYPSDIAVEWESNGQPENNYKTTPPVLDSDGSFFLYSKLTVDKSRWQQGNVFSCSVMHEALHNHYTQKSLSLSP light: DIQMTQSPSSLSASVGDRVTITCRASQDIHKYIAWYQQKPGQAPRLLIQYTSTLQPGVPSRFSGSGSGTDYTFTISSLQPEDIATYYCLQYEQLRTFGGGTKVEIKRTVAAPSVFIFPPSDEQLKSGTASVVCLLNNFYPREAKVQWKVDNALQSGNSQESVTEQDSKDSTYSLSSTLTLSKADYEKHKVYACEVTHQGLSSPVTKSFNRGEC",0.47 nM
2,"HI076-L2-GS12 (antibody, human IgG1, kappa, heterodimerized anti-EREG antibody: altered H240-Hl076 chain (Gly/Ser peptide in loop) with H240-Kn125 and L73-k0; also called Hl076-L2-GS12_2) heavy 1: QDQLVQSGAEVKKPGASVKVSCKASGFNIKDTYIQWVRQAPGQGLEWMGRIDPLRKQTKYREKFEGRVTITADTSTNTAYMELSSLRSEDTAVYYCVRSGREFDYWGQGTLVTVSSASTKGPSVFPLAPSSKSTSGGTAALGCLVKDYFPEPVTVSWNSGALTSGVHTFPAVLQSSGLYSLSSVVTVPSSSLGTQTYICNVNHKPSNTKVDKKVEPKSCDKTHTCPPCPAPELLGGPSVFLFPPKPKDTLMISRTPEVTCVVVDVGGGSGGGSGGGSVKFNWYVDGVEVHNAKTKPREEQYNSTYRVVSVLTVLHQDWLNGKEYKCKVSNDALPMPIEETISKAKGQPREPQVYTLPPSRCELTKNQVSLSCAVKGFYPSDIAVEWESNGQPENNYKTTPPVLDSDGSFFLVSKLTVDKSRWQQGNVFSCSVMHEALHNHYTQKSLSLSP heavy 2: QDQLVQSGAEVKKPGASVKVSCKASGFNIKDTYIQWVRQAPGQGLEWMGRIDPLRKQTKYREKFEGRVTITADTSTNTAYMELSSLRSEDTAVYYCVRSGREFDYWGQGTLVTVSSASTKGPSVFPLAPSSKSTSGGTAALGCLVKDYFPEPVTVSWNSGALTSGVHTFPAVLQSSGLYSLSSVVTVPSSSLGTQTYICNVNHKPSNTKVDKKVEPKSCDKTHTCPPCPAPEYQWGPMVFLFPPKPKDTLMISRTPEVTCVVVDVSDEEPEVKFNWYVDGVEVHNAKTKPREEQYNATYRVVSVLTVLHQDWLNGKEYKCKVSNKALPAPIEKTISKAKGQPREPQVCTLPPSRDELTKNQVSLWCLVKGFYPSDIAVEWESNGQPENNYKTTPPVLDSDGSFFLYSKLTVDKSRWQQGNVFSCSVMHEALHNHYTQKSLSLSP light: DIQMTQSPSSLSASVGDRVTITCRASQDIHKYIAWYQQKPGQAPRLLIQYTSTLQPGVPSRFSGSGSGTDYTFTISSLQPEDIATYYCLQYEQLRTFGGGTKVEIKRTVAAPSVFIFPPSDEQLKSGTASVVCLLNNFYPREAKVQWKVDNALQSGNSQESVTEQDSKDSTYSLSSTLTLSKADYEKHKVYACEVTHQGLSSPVTKSFNRGEC",2.8 nM

# More lines, in order of falling Kd, values ahead:
row,Kd,Binder
1,2.8 nM,"HI076-L2-GS6 (antibody, human IgG1, kappa, heterodimerized anti-EREG antibody: altered H240-Hl076 chain (Gly/Ser peptide in loop) with H240-Kn125 and L73-k0; also called Hl076-L2-GS6_2) heavy 1: QDQLVQSGAEVKKPGASVKVSCKASGFNIKDTYIQWVRQAPGQGLEWMGRIDPLRKQTKYREKFEGRVTITADTSTNTAYMELSSLRSEDTAVYYCVRSGREFDYWGQGTLVTVSSASTKGPSVFPLAPSSKSTSGGTAALGCLVKDYFPEPVTVSWNSGALTSGVHTFPAVLQSSGLYSLSSVVTVPSSSLGTQTYICNVNHKPSNTKVDKKVEPKSCDKTHTCPPCPAPELLGGPSVFLFPPKPKDTLMISRTPEVTCVVVDVGGSGGSVKFNWYVDGVEVHNAKTKPREEQYNSTYRVVSVLTVLHQDWLNGKEYKCKVSNDALPMPIEETISKAKGQPREPQVYTLPPSRCELTKNQVSLSCAVKGFYPSDIAVEWESNGQPENNYKTTPPVLDSDGSFFLVSKLTVDKSRWQQGNVFSCSVMHEALHNHYTQKSLSLSP heavy 2: QDQLVQSGAEVKKPGASVKVSCKASGFNIKDTYIQWVRQAPGQGLEWMGRIDPLRKQTKYREKFEGRVTITADTSTNTAYMELSSLRSEDTAVYYCVRSGREFDYWGQGTLVTVSSASTKGPSVFPLAPSSKSTSGGTAALGCLVKDYFPEPVTVSWNSGALTSGVHTFPAVLQSSGLYSLSSVVTVPSSSLGTQTYICNVNHKPSNTKVDKKVEPKSCDKTHTCPPCPAPEYQWGPMVFLFPPKPKDTLMISRTPEVTCVVVDVSDEEPEVKFNWYVDGVEVHNAKTKPREEQYNATYRVVSVLTVLHQDWLNGKEYKCKVSNKALPAPIEKTISKAKGQPREPQVCTLPPSRDELTKNQVSLWCLVKGFYPSDIAVEWESNGQPENNYKTTPPVLDSDGSFFLYSKLTVDKSRWQQGNVFSCSVMHEALHNHYTQKSLSLSP light: DIQMTQSPSSLSASVGDRVTITCRASQDIHKYIAWYQQKPGQAPRLLIQYTSTLQPGVPSRFSGSGSGTDYTFTISSLQPEDIATYYCLQYEQLRTFGGGTKVEIKRTVAAPSVFIFPPSDEQLKSGTASVVCLLNNFYPREAKVQWKVDNALQSGNSQESVTEQDSKDSTYSLSSTLTLSKADYEKHKVYACEVTHQGLSSPVTKSFNRGEC"
2,1.9 nM,"HI076-L2-6 (antibody, human IgG1, kappa, heterodimerized anti-EREG antibody: altered H240-Hl076 chain (Gly/Ser peptide in loop) with H240-Kn125 and L73-k0; also called Hl076-L2-6) heavy 1: QDQLVQSGAEVKKPGASVKVSCKASGFNIKDTYIQWVRQAPGQGLEWMGRIDPLRKQTKYREKFEGRVTITADTSTNTAYMELSSLRSEDTAVYYCVRSGREFDYWGQGTLVTVSSASTKGPSVFPLAPSSKSTSGGTAALGCLVKDYFPEPVTVSWNSGALTSGVHTFPAVLQSSGLYSLSSVVTVPSSSLGTQTYICNVNHKPSNTKVDKKVEPKSCDKTHTCPPCPAPELLGGPSVFLFPPKPKDTLMISRTPEVTCVVVDVSHGGSGGSEEPEVKFNWYVDGVEVHNAKTKPREEQYNSTYRVVSVLTVLHQDWLNGKEYKCKVSNDALPMPIEETISKAKGQPREPQVYTLPPSRCELTKNQVSLSCAVKGFYPSDIAVEWESNGQPENNYKTTPPVLDSDGSFFLVSKLTVDKSRWQQGNVFSCSVMHEALHNHYTQKSLSLSP heavy 2: QDQLVQSGAEVKKPGASVKVSCKASGFNIKDTYIQWVRQAPGQGLEWMGRIDPLRKQTKYREKFEGRVTITADTSTNTAYMELSSLRSEDTAVYYCVRSGREFDYWGQGTLVTVSSASTKGPSVFPLAPSSKSTSGGTAALGCLVKDYFPEPVTVSWNSGALTSGVHTFPAVLQSSGLYSLSSVVTVPSSSLGTQTYICNVNHKPSNTKVDKKVEPKSCDKTHTCPPCPAPEYQWGPMVFLFPPKPKDTLMISRTPEVTCVVVDVSDEEPEVKFNWYVDGVEVHNAKTKPREEQYNATYRVVSVLTVLHQDWLNGKEYKCKVSNKALPAPIEKTISKAKGQPREPQVCTLPPSRDELTKNQVSLWCLVKGFYPSDIAVEWESNGQPENNYKTTPPVLDSDGSFFLYSKLTVDKSRWQQGNVFSCSVMHEALHNHYTQKSLSLSP light: DIQMTQSPSSLSASVGDRVTITCRASQDIHKYIAWYQQKPGQAPRLLIQYTSTLQPGVPSRFSGSGSGTDYTFTISSLQPEDIATYYCLQYEQLRTFGGGTKVEIKRTVAAPSVFIFPPSDEQLKSGTASVVCLLNNFYPREAKVQWKVDNALQSGNSQESVTEQDSKDSTYSLSSTLTLSKADYEKHKVYACEVTHQGLSSPVTKSFNRGEC"
3,1.8 nM,"Kn125-L4-GS5 (antibody, human IgG1, kappa, heterodimerized anti-EREG antibody: altered H240-Kn125 chain (Gly/Ser peptide in loop) with H240-Hl076 and L73-k0) heavy 1: QDQLVQSGAEVKKPGASVKVSCKASGFNIKDTYIQWVRQAPGQGLEWMGRIDPLRKQTKYREKFEGRVTITADTSTNTAYMELSSLRSEDTAVYYCVRSGREFDYWGQGTLVTVSSASTKGPSVFPLAPSSKSTSGGTAALGCLVKDYFPEPVTVSWNSGALTSGVHTFPAVLQSSGLYSLSSVVTVPSSSLGTQTYICNVNHKPSNTKVDKKVEPKSCDKTHTCPPCPAPELLGGPSVFLFPPKPKDTLMISRTPEVTCVVVDVSHEEPEVKFNWYVDGVEVHNAKTKPREEQYNSTYRVVSVLTVLHQDWLNGKEYKCKVSNDALPMPIEETISKAKGQPREPQVYTLPPSRCELTKNQVSLSCAVKGFYPSDIAVEWESNGQPENNYKTTPPVLDSDGSFFLVSKLTVDKSRWQQGNVFSCSVMHEALHNHYTQKSLSLSP heavy 2: QDQLVQSGAEVKKPGASVKVSCKASGFNIKDTYIQWVRQAPGQGLEWMGRIDPLRKQTKYREKFEGRVTITADTSTNTAYMELSSLRSEDTAVYYCVRSGREFDYWGQGTLVTVSSASTKGPSVFPLAPSSKSTSGGTAALGCLVKDYFPEPVTVSWNSGALTSGVHTFPAVLQSSGLYSLSSVVTVPSSSLGTQTYICNVNHKPSNTKVDKKVEPKSCDKTHTCPPCPAPEYQWGPMVFLFPPKPKDTLMISRTPEVTCVVVDVSDEEPEVKFNWYVDGVEVHNAKTKPREEQYNATYRVVSVLTVLHQDWLNGKEYKCKVSNGSGGSPIEKTISKAKGQPREPQVCTLPPSRDELTKNQVSLWCLVKGFYPSDIAVEWESNGQPENNYKTTPPVLDSDGSFFLYSKLTVDKSRWQQGNVFSCSVMHEALHNHYTQKSLSLSP light: DIQMTQSPSSLSASVGDRVTITCRASQDIHKYIAWYQQKPGQAPRLLIQYTSTLQPGVPSRFSGSGSGTDYTFTISSLQPEDIATYYCLQYEQLRTFGGGTKVEIKRTVAAPSVFIFPPSDEQLKSGTASVVCLLNNFYPREAKVQWKVDNALQSGNSQESVTEQDSKDSTYSLSSTLTLSKADYEKHKVYACEVTHQGLSSPVTKSFNRGEC"
